# Experimental data reported in US10976317B2, “Systematic discovery, maturation and extension of peptide binders to proteins” (Roche Sequencing Solutions, Inc., priority 2013, dated 2021).
# Biological target: T1, human prostate specific antigen (PSA) (Homo sapiens, UniProt P07288)
# T1 construct: biotin (chemical label, NHS-PEG4-biotin on amines)
# Experiment: PSA binding assay on 5-mer peptide array (biotin-labelled PSA, Streptavidin Cy5 staining, fluorescence signal)
# Details: 5-mer Array; rank in the list of 405 sequences with the highest average signal intensity; PSA 100 ng/ml, 25° C., 12 hrs
# From the text: Array Design: 5-mer array was designed by using all combinations of 18 natural amino acids excluding cysteine and methionine, any dimer or a longer repeat of the same amino acid, as well as any peptide containing HR, RH, HK, KH, RK, KR, HP, and PQ sequences to create a library of 1,360,732 unique peptides. Extension Arrays were designed by extending sequences selected from 5-mer arrays experiments by two amino acids from both N- and C-terminus using all 20 natural amino acids. Double Substitution/Deletion Arrays were designed by extension of sequences identified in the extension array experiments with glycine (G) amino acid to make them 11-mer peptides and creating a library that includes all possible single- and double substitution/deletion variants of the original sequence.
# Array Synthesis: 5-mer Arrays were synthesized with 5 cycles of synthesis using a mixture of G and S amino acids in a 3:1 ratio, respectively at the N- and C-terminus of each of the 5-mer peptide. Extension and Double Substitution/Deletion Arrays were synthesized directly without using flanking wobble synthesis.
# Binding Assay: PSA labelled with biotin using EZ-Link NHS-PEG4-biotinylation kit (Thermo Fisher Sci., Inc. Rockford, Ill.) was incubated in SecureSeal hybridization chamber (Grace Bio-Labs, Bend, Ore.) at concentration 100 ng/ml in 1×TE binding buffer with 1% alkali soluble casein at 25° C. for 12 hrs. Array was washed 3× with 1×TE buffer and stained with Streptavidin Cy5 in 1× binding buffer with 1% alkali soluble casein at 25° C. for 1 hr, and washed 3× with 1×TE buffer and finally with 0.1×TE buffer and scanned using a 2 micrometer MS200 scanner (Roche/Nimblegen, Madison, Wis.).
# Data analysis: Image analysis and signal extraction performed using NimbleGen DEVA software, and peptides with fluorescent signal are identified. The 5-mer sequences for the binding peptides are identified and clustered based on distances using the standard BLOSUM 62 substitution matrix as implemented by an R package ‘PEPLIB’ (see, White et al., 2013, cited above). The distances of the 5-mer peptides are plotted on the first two components of a PCA plot. Consensus motifs for each cluster are reported in the graph.
# T1 sequence (P07288 25-261): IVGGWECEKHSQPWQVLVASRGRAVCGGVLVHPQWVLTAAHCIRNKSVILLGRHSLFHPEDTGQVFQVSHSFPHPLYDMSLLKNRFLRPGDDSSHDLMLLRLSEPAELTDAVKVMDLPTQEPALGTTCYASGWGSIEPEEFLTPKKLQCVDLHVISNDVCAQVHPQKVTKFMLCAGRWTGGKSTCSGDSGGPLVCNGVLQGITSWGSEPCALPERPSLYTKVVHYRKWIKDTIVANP
row,Substance,rank by binding signal to PSA
1,FEVYL,1
2,RSILY,307
3,WEVHL,28
4,WTVYA,3
